In publication PMC4772976 (EMBO Reports, 2016):

Molecular target: His-Ub (UniProt P0CG48 1-76)
Test: pull-down

B1: GST-NAT10 RFL (RING finger-like, residues 456-558) (domain or fragment)
chain: SARTLYEVSLQESIRYAPGDAVEKWLNDLLCLDCLNITRIVSGCPLPEACELYYVNRDTLFCYHKASEVFLQRLMALYVASHYKNSPNDLQMLSDAPAHHLFC
B1: binds.
